Measurements reported in the supplement of paper PMC10126150.
± gives the standard deviation of the averaged measurements.

Tested on: ATP
Experiment: switch fluorescence ratio, 500 uM ATP over buffer (Cy3 cluster intensity, sum of 5 cycles each) (fold (ratio)); higher = stronger signal-on switching upon ATP binding; sequences stand for … in TCGTCGGCAGCGTCAGATGTGTATAAGAGACAGTTTTTTTTTTTTTTTTTTTTTTTTT…TC
Conditions: aptamer strand: ATP DNA aptamer (quencher-CACCTGGGGGAGTATTGCGGAGGAAGG + anchor), 100 nM annealed; ATP concentration: 500 uM
How it was run: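 Five buffer/ATP imaging cycles were run on Cy3-labelled switching-strand clusters on a modified Illumina MiSeq flow-cell, with NaOH stripping and re-annealing between cycles. In each cycle, clusters annealed to 100 nM quencher-labelled ATP aptamer were imaged in selection buffer, then after 15 min with 500 uM ATP at 22 °C. Per cluster, the fluorescence ratio is summed target-cycle over summed buffer-cycle Cy3 intensity, averaged per switch-domain sequence. Only clusters within 100-1000 RFU were kept.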
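Also: ATP exposure 15 min at 22 °C before imaging.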

Sequence | switch fluorescence ratio
TTTTCCCATT | 1.02 ± 0.075
AGGTAAATGG | 1.02 ± 0.026
TTACGGGGGG | 1.02 ± 0.052
ATGGTTGGGT | 0.994 ± 0.012
GGAATCTGAT | 0.996 ± 0.12
AGGAGTATGA | 1.03 ± 0.029
CCTAGAGAGG | 1.031 ± 0.006
CGGGGCTTGT | 0.985 ± 0.013
TGTCCTAAAA | 1.05 ± 0.04
TGGGGCGTTT | 1.01 ± 0.022
TTGTTTAAGT | 1.001 ± 0.0081
GAGCGGGATG | 0.986 ± 0.031
TGATAAATAC | 1.33 ± 0.069
GGCCTGAAAC | 0.9929 ± 0.0037
AGCGAAATCT | 1.08 ± 0.03
ATAAGGGCTT | 0.929 ± 0.11
CATGGCACGT | 1.02 ± 0.011
TCGGGGACGT | 1.062 ± 0.0057
ATATACGGTA | 1.15 ± 0.03
CATTGAAGAG | 0.998 ± 0.013
GCGTGATGCC | 1.03 ± 0.075
GCTTGGTCAT | 0.9714 ± 0.0035
ACGGCACTCG | 1.4 ± 0.1
TAGTAGTTTT | 1.01 ± 0.052
AGGGGTATTG | 0.993 ± 0.017

Sequence | switch fluorescence ratio
TGGGTAAAGT | 0.971 ± 0.019
CATATCGCCC | 1.06 ± 0.039
TGATATGGGA | 1.01 ± 0.03
GTTTGGCCAT | 1.02 ± 0.02
TTTGTTAGGC | 0.991 ± 0.029
TTTGCCTTTT | 1 ± 0.042
CAGGACGGGT | 1.02 ± 0.03
CAGCCTGGGC | 0.984 ± 0.016
TTAAGGGGGT | 1.03 ± 0.08
CGCATGTCTC | 1.81 ± 0.11
GAATCGATTT | 1.02 ± 0.027
GGGGGTGGGA | 1 ± 0.019
ATTGGAGGCT | 0.971 ± 0.075
AGGCATTTTA | 0.983 ± 0.053
TCGAGGGGGC | 1.07 ± 0.17
GAAAGGGGAT | 0.99 ± 0.018
GTGTGAGTGC | 1.06 ± 0.024
GAATTCCGTA | 1.03 ± 0.042
GGTTTTTCTG | 0.992 ± 0.061
CGAGGCCGGG | 1.01 ± 0.015
GCCATTAGGA | 1.015 ± 0.0049
CGCTATTTTT | 1.02 ± 0.02
TTTTTGTGA | 0.995 ± 0.026
AAAAAAAAGC | 1.03 ± 0.038
AGGGTTAGGC | 0.933 ± 0.02

Sequence | switch fluorescence ratio
TTCGTTTGCA | 1.38 ± 0.64
AAACGATGTT | 1.02 ± 0.055
AACGGGGTAG | 0.983 ± 0.034
AAGGATCTGC | 0.967 ± 0.052
TGGGGAATGT | 1.01 ± 0.042
AAAGTCTGAT | 0.959 ± 0.027
CATTGAGTTC | 0.978 ± 0.014
TTGGTGCTTG | 1 ± 0.041
CCGGCCCCGG | 1.68 ± 0.028
TGATGTAACG | 1.012 ± 0.0082
CCAATTGAAG | 1.02 ± 0.016
ATGGGGTTCG | 0.993 ± 0.035
AACGGGAATT | 1.039 ± 0.0056
GCGAGATGCG | 0.972 ± 0.032
AATTTTAGAG | 0.973 ± 0.045
CGTTCAATGG | 1.23 ± 0.05
CAAGATTCGG | 0.986 ± 0.018
CGGTGAAGCC | 0.984 ± 0.019
ATAAGTGGTT | 0.995 ± 0.026
AACTTTTATG | 1 ± 0.026
AATTGGATGT | 1.01 ± 0.021
TGCCGAAAGC | 1.018 ± 0.0087
CTATATAAAT | 0.997 ± 0.059
GAGTATGGGA | 0.983 ± 0.034
TTTTACCGTT | 1.02 ± 0.015

Sequence | switch fluorescence ratio
GGGATTCAG | 1.0226 ± 0.0002
GACAGGGATC | 2.1 ± 1.6
AAGTGGGGGT | 1 ± 0.039
TAGCTACTTC | 1.73 ± 0.93
GTGCTAGGGT | 0.988 ± 0.02
AAGTTGGTGG | 0.987 ± 0.033
TAGGTCAGGG | 0.965 ± 0.027
TGTTGTTTGA | 0.991 ± 0.016
AGACGGGAAC | 1 ± 0.022
TTCGTTCGGG | 0.992 ± 0.041
GAGGTTGTGG | 0.973 ± 0.06
GTGGGGGAGA | 0.9868 ± 0.0059
TTCGGTTCGT | 0.98 ± 0.066
TTTCATCTTT | 1.04 ± 0.078
ACGCGGGACA | 1.04 ± 0.014
TAGCTAATTT | 0.979 ± 0.027
TTACGGTCCC | 1.19 ± 0.24
GCGTTTAATT | 1.02 ± 0.03
TTATGTATAT | 1.007 ± 0.0069
TCGGCTGTTG | 1 ± 0.028
TTAGGATGGC | 1.2 ± 0.28
CGGTAACGAA | 1.04 ± 0.014
CCATGAGCAG | 2.06 ± 0.11
TTTTAGCTGG | 1 ± 0.015
GGGGGCTTAG | 0.988 ± 0.038

Sequence | switch fluorescence ratio
CGATAATTTA | 1 ± 0.053
TTGGGCACTT | 0.997 ± 0.068
TAGTGAGTCC | 1.08 ± 0.1
AGCTTTAGTT | 1.008 ± 0.0019
TGGGTGTCAC | 0.9868 ± 0.005
TAAATAATTG | 1.008 ± 0.0069
ACGGCCACTG | 1.07 ± 0.019
CTCTGGGCGG | 0.988 ± 0.039
TTTCTCAGAG | 0.995 ± 0.016
GATTCATTAT | 0.988 ± 0.011
TGGGTTAGCG | 0.995 ± 0.041
AATAGGTCAT | 1.02 ± 0.028
ATGGGAACCT | 1.12 ± 0.18
GGGTTGTTGG | 0.9963 ± 0.0015
AACCCTTTCA | 1.06 ± 0.035
GGCTATCTGT | 1 ± 0.047
TCTCGTAACT | 1 ± 0.044
ACGAGGGTTG | 1.01 ± 0.026
CGTTTATGTA | 0.995 ± 0.04
TATGTTGTTT | 1.04 ± 0.023
CCATATTTAG | 0.996 ± 0.028
TAAATTTTAT | 1.012 ± 0.0058
CCCTTTTTTG | 1.02 ± 0.05
AGGGGGGTCT | 1.01 ± 0.04
GAATAGGTTA | 0.983 ± 0.026

Sequence | switch fluorescence ratio
CAGGCAGTAA | 1.18 ± 0.073
AAGGGAGAGA | 1.02 ± 0.011
GGCGTGTTGG | 1.02 ± 0.045
AGGTTGCGCG | 1.009 ± 0.0079
TTATTAATCG | 0.963 ± 0.081
GTTATTCTCT | 0.971 ± 0.015
AAGTTGATTG | 1.023 ± 0.0031
GCAGCAATTG | 3.03 ± 0.19
GAATTAAGCT | 1 ± 0.015
TACGAAGTCG | 1.0075 ± 0.00084
TGCTGGTCTC | 1 ± 0.015
AGGGAAAAAG | 1.02 ± 0.045
AATGAAGTCG | 0.997 ± 0.064
AAAGGGCGGC | 0.992 ± 0.018
CGTTTGTTCC | 1.0348 ± 0.00023
ATTGAAAAAT | 0.983 ± 0.012
TGGGGGGAAG | 0.994 ± 0.018
TTAGAAGATT | 1 ± 0.044
AGTGATGGGG | 0.987 ± 0.037
ATGATGGGGC | 0.9536 ± 0.0011
TTTGTTTCGA | 1.05 ± 0.11
CCATTGTTTT | 0.997 ± 0.018
ATGCGTGACA | 1.02 ± 0.036
TAGTGGTTCG | 1.02 ± 0.023
GTTGAAAGTA | 0.977 ± 0.039

Sequence | switch fluorescence ratio
GGCCCGTGCA | 1.004 ± 0.0015
ATAGTCCCTA | 1.01 ± 0.0019
GGTGAGGGAC | 1.02 ± 0.011
GATCGAAAGG | 0.966 ± 0.025
TGAAGGCGGG | 1 ± 0.039
GAAGATGTAG | 0.9558 ± 0.0033
AGGTGATTAG | 0.986 ± 0.044
TAGGGGCAGC | 1.01 ± 0.0054
CGTGGGGGAG | 1.02 ± 0.066
GACGGGGGTG | 1.01 ± 0.023
GAGAGGCAAA | 1.01 ± 0.018
CGGAATTGGG | 0.9735 ± 0.0085
TTACTTTGGA | 1.03 ± 0.023
GGGGACCGGC | 0.954 ± 0.041
GCTATTCGAA | 1.01 ± 0.061
TTCGTTATTG | 1.02 ± 0.026
TACCAGGGAT | 1.1 ± 0.14
TAGCTGAGTT | 0.984 ± 0.014
GGCGAATGGG | 0.98 ± 0.041
TTAGCTACTG | 1.03 ± 0.056
CTCGGGTATG | 0.9791 ± 0.0043
GCGAGGAATC | 1.0365 ± 0.00015
AATCTGTTAT | 0.992 ± 0.033
GATACCTTCG | 2.614 ± 0.023
CCAACAGCCC | 1.12 ± 0.079

Sequence | switch fluorescence ratio
GAGAAACATT | 1.06 ± 0.029
GGTTGGGTCC | 0.9701 ± 0.0018
ATTTTGAGGA | 1.02 ± 0.015
CAGGGACGGC | 1.02 ± 0.012
GCGGGAAACT | 1.05 ± 0.032
CGTTTACCTG | 0.983 ± 0.0042
TTTACACGAT | 1.01 ± 0.019
ATAATGTAGC | 1.04 ± 0.036
ACGATTTAAG | 1.03 ± 0.05
ATTGGTGAGG | 0.988 ± 0.032
ATCTTTAAGT | 0.993 ± 0.015
CGAGGAGCAT | 1.01 ± 0.058
GGCGTCTTCC | 1.01 ± 0.037
ATCGCATGGG | 1.03 ± 0.013
GTTTTGGGAC | 0.993 ± 0.027
GACATGGTTA | 1.02 ± 0.051
CAGCTGCTGC | 1.014 ± 0.0051
AATTGCGTTT | 1.01 ± 0.024
CTGAGGCACG | 1.09 ± 0.068
ATTGTAATTG | 0.993 ± 0.012
AATATGGGGG | 1.01 ± 0.025
GGTTAAGTGT | 1.01 ± 0.021
GGGTTAATTT | 1 ± 0.028
GTTTTGTTTG | 0.9553 ± 0.0016
TTGGGAATAA | 1.02 ± 0.0046
